Consider 47 sequences from the NTF2 design screens of Basanta et al. (2020).

The data set is described as follows: protease stability score; higher = more stable; yeast display proteolysis, trypsin and chymotrypsin.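 Further: log10 excess protease needed over predicted unfolded state with 0 meaning unfolded.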
On to “DEEQEKHVSHYLELQKHGNEDELLRTVDPNATATVGDKEYHGMKHVAHHLVNTLKRINVKIDRLDLKVEGNTARIDQVRVQKTNGKPDRYRLKQTVQFHNGRFKRVTADVRR”, for which the protease stability score was -0.14. On to “DEDHKAREMMRRWEHNWRTGDPNKLANQFDPNATWDVGDHTIKGREQYAEQIKRNMEQADDVHITVKDVKREGETIVVRFHDVQNHNGQNRVTIVNARFFDDNGSFVMVSFKQE”, for which the protease stability score is -0.321. In the case of “DRERLADELRRRLEKVMTTGDPTELDKLMDPNARILYGDQKFHGREHVKEFAKTLNDQYDHVTIRLVSYDIKNGEIHIVVDVVFRHNGQTRTKRINFVARVHGDKVKIESINIP” it was 1.3; in that of “DETQLRIASEFEEAVRRGNEEQAKRNVDPNARVRVGDTEVHGNEQIAKKIRQEVEHARVSVKSVTNHTDENRVVIDVEFEATHNGEPTSKKYQVNIEIRNGKIKEINYHDSK”, -0.157; in that of “DRHERKKVAKDFNEALETNDHEQLMEQMDPNARIKYGDKHYHGREDLRRFWKKLVDSVDHITVDKMQVRGEEVVVLAKAESNGRNETFRLVMEFHNGRIKFVRKDTP”, 0.132. For “DESEMDTAVKIVEKGDPHQYKKLIDPNAKIIVGDKELHGREDVERLLHKLYEQADHVQINSITVQGDELRVDAQFKFNGRDIRMVVEFRVHNGRVKSAHIQATSEEQERELSKMIS” the value was 1.35.

On to “DEEVFDEFIKHMETGDFRYLQRMFDPNAKASVGNKTVHGREQVQTLLEQLHSQVDHYHLKDVDNNENRMRVHFVLNVNGKNIEAENVFEVRNGRLKHLSIKFRNPEDQEDARRRLE”, for which the protease stability score was found to be 1.12.

As to “DEDRQQTLADELVKALEKGDFEKIEKLADPNVRVEIGDRHVRGREQASKELKKYTDRVDEVRIDSLEVQGEKVSADFRFNVDGHTIRLTAEITFHNGRIKMMRFHFTNEDQERRYKS”, the protease stability score is 1.02.

The sequence “DQEKKATRFARKLIHDIRTNDEEHLVDLADPNVKVQYGDKSYHGREQFKKWWKDLMDQADHVDVKVRDLKVDGNKFVLVYSYVMNHNGQKREVEMNVSAKDKNGRINIQSIQMG” showed a protease stability score of 0.301. For “DEEINTIAEEFMKAFQHNNPDKMRNLADENAQFRIGDDKIHGMETYAKEVKKENREQRVEFQIKDLKVQGNTVDMDVSFEVERNGQPHRFEVKLHFNFHNGKLKTLQWNTDG” the value was -0.078; for “DEREEAKRLWERFVRAIQHGDERRLRELLPPDVRVTVGDKEYHGRDQAVTWLQELAERVDHVSFDVRHIEVENGRLDIDAKVQMENNGRQHSFTLRIIADDHNGKFVIRSITYQ”, 1.84. In the case of “DDEMIRVYREMQKALQDNDPERAKELMDPNAKLRYGDKVFHGREEFAKDMERRHHESRVQIRHLKVEDQGEKAVARFNEVNNSNGRPNSKSVSVELEAHNGKLVHVRAQDTK” it was -0.172; in that of “DDDALRRAKEMDDQIKNGNEHEYQKMVDPNAREHIGDTTYSGRENLVKLVRDRRRHMREKVDITEMESSGDKLRIVYRAEQEHNGQPRKKRRRKVIRLSNGRVQEVKVVDDQ”, 0.4.

“DDQKARRLVERFIRALQHGDEDLARQLFDKNAKINIGDKTLTGREDVAKYVHHVHRHVDDVSVKSIQVDGDKAEVRVQFDINGKQHQMTFSAKYRNGRVQSATYKSQ” came in with a protease stability score of 0.524. For “DDQKEIEKVLEVIKRMDTGDEKNVKEMFDPNARASVGERTYHGREDIQSFARELKERVDHVRIDSMSAHGDKATVDLRMNENGRTERYSVRVQIHNGRARHLRYTTK” the value was -0.219.

Take “DEEIVKLLKRLIKAEKNGNPDEIRKNLDPNVRYVVGERTITGREEFVRDQQRRDDQMRVEFQSVQLRQKGDKAVIHQQAVYRHNGRPKTNHQHISIQAKNGKVKDQKVEVKE”: the protease stability score came to 0.069.

Regarding “DEEKLRKMVETLIQAVQNGNLEKIRQMVKENVEFTLGDKTYKGQEDALKIVKHLQQVGAEAHVERQEITGDEAKVKTQWHVGDHTMEVEVVYYVRDDKVEKVEINWSEEAKKAIKAG”, the protease stability score was 1.17. In the case of “DEENLNQLKKFWHALQTNNPDQARKLADPNVRLHVGDKSVNGREEMVKRLVDKMHEMEIDYKVRDMHAHNGHIKVEAERVIHDNGQPRRATYEIRVIIKNGRIKEIQIHERQ” it was 1.07.

As to “DEENQKIFDEYVKALRTNNPERLNEMLDPNARVQVGDKEVHGMDDLSRTVNQMIDNLHLNLKIESVHVRGNTLSVDAEYVLNVNGKPQRRSVEIEIHAHNGTVKFLRMRVDPREEQKIKS”, the protease stability score worked out at 0.363. For “DEEEVKDLDRRLQEAMKTNDPDQMQRLVDENVTASYGDKEVTGREEFKKNNRELLKRVDHVNIHDVTVSGEEMVLDASVKHDGREHRIRVRAVVRDGRIKSLKIHDG” the value was 0.494; for “DDDHARRLAERFIKAFQKGDEERAKDLAPPDVKVHVGDTQYNGREQMKQAVKDFRERVDHLSVETIKVRNGRVEVHATANINGVEVNVVFTFVFRNGKMKSMDLKYRDEEAHRNWTS”, 1.19; for “DEKRLREIATRIVDALKTNNPEDFQKQLDEDAEVSIGDKTVRGQKQIVKMMDEFNSRVDEIDFKSYTAEGNQVVVNAVFNHNGRQQHLHFVFVFHNGKAKTVKAESS”, 1.12. For “DEHKEASEYIEQAEENMRDNNFRRMMQNADENVKLKYGDKELEGREQVESWANTVQSRADHFEIRVESMTVTGDHISIVLSHIVRHDGRRVKQKIIIIFKVHNGRARIEHIEFK” the value was 0.044; for “DEDTIRKVNRSFLEAVQHNDDDTLRRLLDEDAHAQYGDKTVHGKTEVVKMILTFVEQVDSLDYKSITATGDHVDVKVDAKHNGRTLDVRIIMRIENGRFTHVQFDIR”, 0.075; for “DEDRLRELVKKFVDAMRTNDEDRIREMMDKDVRVEVGDTVIKGHNEAKKWAKRLRERADHIHFDSVHVQGDRAEVDFQVRHNGKTDRNVLVLRMNNGRVQELRVHTK”, 1.81. For “DDHEVAKQNMRDLLTILNTGDPDKAEEMADKDVKIDVGDKRYHGQTKMREWIEELRKRYDHIHADVKSVEVHNGQVRADIEMVFNHNGREETVKVDVKAELDGDKVKIENLVLR” the value was 1.3; for “DEEDLKTAHRRQRTNDFDRIRNKADKDAHVQVGDTQVHGREEVKKFMTLLKKRVDHVEIHDIEKKPGRLVVELRMNVNGQEIDLVVMFQFKNGSLKHMRFKVRDEDDKRKLEKALS”, 0.432.

“DEEEVEEMVDQALTAIRTGDEDTFAHQFDENARMEVGDTTLHGRDEIRKEMKKFRDRADHIRIQDYKVKGNKIVIVFVARFDGRHAQITIVWVFSNGRVKHASINPNQVQEFRK” gave a protease stability score of 0.279. As for “DEDKHAKRVMENLTRAMNQGDKRRAADMVDPNVRLVIGDKEYHGRHQFRRAIKELVDRADHIEIDVRDVKTKNGRVQAHAHVEATYNGKKNDFKMVAEVEVQGENVVVHQITLK”, the protease stability score was found to be 1.13. In the case of “DNDTQHRLAERFNHAVETGDPDKIMKLVPEDVRFTVGDKEYHGRESLSKVIKDFRDHADRVKVESVRVNNGRIDVQMRYNRNGQDRVMTFLLTVHNGKIENVNIQSG” it was 1.58.

“DTDDTEALRRFFDALHNGDPDKVDKNADKDVRFKVGDKEIHGREQLRRTVEQQKKEIRYEVDVKQISDHNGQVSVHAHFQENKNGKPKNVEVTAVAEAENGTLKQLEFNSDQ” registered a protease stability score of -0.367. “DDEVKKFAEKFVTNLENNNPQELKSMADPNAKFEVGNKSVHGMDEYVRQVRERNEHMRFDVKRVQIRVNGNQIIINVHLHVNVNGRPVDLSYEVDINFDNGKIKYVRLDVDEDQEKRMTG” returned a protease stability score of 1.1. “DEDEERKAVERFLDALKTGDPDKFKKLVDPNVNIQVGDKEINGREQYAHEVHRRKKRADHLEVEHVNVKNGKVQIFVVINVDGRSHHYVLDAHIHNGRIVEMKVEHQ” yielded a protease stability score of 0.08. Consider “DEDDLRRLAEDFVRVLKTGDEDRLSELFDPNAKVSVGDHEYHGSENIVRALVEFARRVDELEVNSITIENGRVKIDAFATVNGKRVSVIIEIQYHNGRAKYVEFKYTSEEENRRFKN”, for which the protease stability score amounted to 0.466. In the case of “DHTAARIAKEIMENQDKGDEDRLRKLLDKDVRLKYGDKEIHGREHAARTLKRERRQIRIDRRIRHVEIQGDEVSIEFDMHVQHNGKPRDRKAVMVFRMQGDKLEEMTQDNTK” it was 0.191; in that of “DRELNQLFRDYVHALKTGDEDELRKQADPNVRIEIGDKEWHGMEKIATEQKKRHDEIRVQIDVKEVSVHNGRVEAELEVVDQQNGRPEKRKVTVTAEYENGKLQHQRYQSDG”, -0.442. In the case of “DEEDQKTVEEFLHNLEKNNEDQIKRLLDKDVKFIIGDKELHGMEDAVDRLRRHIEEMKVRIESVSNTVSGDKVVVDFTFIEDQNGKPDRKRMKIEFRFHNGKAKEIRIETRQ” it was 1.38; in that of “DRDDFRRVIHEVQKALKHGDREQLRRLLDENAKVKVGDKEYQGDERAVKVMTTIANKADRMEYKDIHLHGDSVYINVVLNHNGKKDTVVWVIAVNNGKVQFFAQETR”, 1.01. On to “DQEEAKKIVDKMLKAVENGNEEDLVKMGADGVEYRAGDKKAHGPEAIQEVVQYLKRKGVEVEVKEVQVKGDKAQTHVDYKVGNETMTATANATLKGGKIDRVEIDFDETLKKVIKDG”, for which the protease stability score was 0.154.

Sequence “DEEHLLSRLAKEFWEDWKQGDPNKASKQADKDVHVQIGDKEYHGREHLERLFKEVKKDVDHNTSRITDLKVDENHIDLKVSFSMNVNGQNITMVVDVKMRIVNGHAKAVDIKYK” registered a protease stability score of 1.37.

“DEEVNHQMSRMWEANKRGDEHTLRELVDPNAKIDVGDKRVHGMEEYVKQVRNRREDLRWRFKIDHMSVDGDTVKFRARAVENENGRPQSYKFEQNVRVHNGKLTEQNQQDHG” returned a protease stability score of 0.181. As to “DERLREQLNRFHKLLEKNNPEKLVEQLDPNAEFEVGDKQYHGREQIEDWQRRLAKRQRFSRDFKSIDASNGNVRATFRVVITHDGKPDDYLAVMHFQVKNGKFKRFVIKRNQ”, the protease stability score was 0.291. The sequence “DEELEDLASRIWKAIDHNNPDELKRNFDENVNAQVGDTTYHGMDDWAREIVHNLKEMRIHWSDMRVSKQGEQVRIKARFVTKHNGRPQNMRMTAVFEAHNGRVQDYKQNNRG” returned a protease stability score of -0.27. For “DERAEELVKRIFEALHDGDPQKFVNNIDPNARVNIGDEEIHGRKDAEREIQKRLEHSRVRFDLRSFRVSNGRAEATANVQENHNGRPQTNTVKATFVIHDGRVKEINMQHDG” the value was -0.101; for “DDDARDLMKEVLTAQKNNDPKHVRKLFDPNANIKYGDREVTGMDHAAKTLVDHIQQIRLQIDSVTLEVQGDTIIVHAQMVNDRNGNPDSTRFVLEAKVDGDKFKSQDKQEDS”, -0.524. As to “DDEENKKINEQLKTGDPQTFVDQADENARFRIGDKDFQGREDAKKIADLRKNRVDHIRYREVHFEGDKFVLDAVATFNGRRIKFVVHVTFHNGRLKYYRIKVTNEEVRRQLDELNS”, the protease stability score was 0.8.

As to “DHRALSQVEQFMNALQQGDEKRLMELADPNVKIIIGDKDVHGREEWDRQVHKRRHEIQYEVRRVKMHVNGDTVHVKIRAVATINGKPFEVEYTANFKIDNGHITHIDWQLPDEYLKRVKS”, the protease stability score was determined as 0.062.
